Experimental findings from the RNAGym collection of RNA variant scans (doi:10.7554/elife.90254) are described below.

The labels stand for the following.
B1: OR4K15 (parent)
chain: GUUAACGGUCAUAGGCCAUGGAAACUAGGAGCACCAUUUCGCUGCCAGUGAAGAAAUGAACAAAGAAAAUCUGGGCCAGGCAGGCAUCAAAAGAAAUAGUCUUGCGCUCAACCAGAAAGUCUGUAAUCAUUUUAAGGGUA

Variants of B1 are the subject of the series. The experiment in a line: self-cleavage, relative activity (ratio to wild type); higher = more cleavage; in vitro, sequencing; the parent is a self-cleaving ribozyme.
Consider A22G A140G, for which the self-cleavage was 1.85.

For A22G A140U, the self-cleavage stood at 0.8.

With G21A A68G, the self-cleavage amounted to 1.55.

Consider A22G C109U, for which the self-cleavage was found to be 0.

A22G A36U: the self-cleavage turned out to be 0.87.

With G21A A69U, the self-cleavage was 1.48.

For the variant A22U A24G, the self-cleavage came out at 1.01.

For U19G A140G, the self-cleavage was found to be 1.51.

For the variant A22U A126C, the self-cleavage stood at 1.34.

Consider U19G C105G, for which the self-cleavage amounted to 0.05.

For the variant U19A U49C, the self-cleavage was determined as 1.38.

In the case of G21A A27U, the self-cleavage amounted to 1.32.

U19C A86U: the self-cleavage was found to be 1.8.

For the variant G20A A24G, the self-cleavage came out at 0.1.

For A22G A98G, the self-cleavage turned out to be 0.88.

As for A22G C81U, the self-cleavage stood at 0.53.

For the variant A22G A63U, the self-cleavage was 1.15.

On to A22U A96U, for which the self-cleavage turned out to be 1.54.

Take A22U A96G: the self-cleavage worked out at 1.57.

Consider G20A A27C, for which the self-cleavage turned out to be 1.93.

As for U19C G48A, the self-cleavage was determined as 1.61.

On to U19C U103C, for which the self-cleavage stood at 0.66.

Take U19C A140U: the self-cleavage turned out to be 1.21.

With U19C U102C, the self-cleavage worked out at 2.32.

As to U19C U102G, the self-cleavage was 0.78.

For U19A G44A, the self-cleavage came out at 2.16.

With A22U A67G, the self-cleavage was 1.87.

As to U19C C113U, the self-cleavage stood at 0.08.

As to A22G C46U, the self-cleavage is 1.36.

As to G20A A95U, the self-cleavage was 1.89.

As for U19A U87C, the self-cleavage was determined as 0.97.

With U19C A96C, the self-cleavage amounted to 0.69.

Consider U19C A96U, for which the self-cleavage stood at 1.51.

As to U19C A96G, the self-cleavage was found to be 1.8.

Turning to U19C G137A, the self-cleavage came to 0.95.

Regarding A22G C34U, the self-cleavage amounted to 1.33.

For A22G U38C, the self-cleavage was determined as 1.62.

On to U19A U102C, for which the self-cleavage worked out at 1.65.

Turning to G21U A82G, the self-cleavage was 0.98.

A22G C32U: the self-cleavage amounted to 0.91.

In the case of U19G A110G, the self-cleavage turned out to be 0.2.

On to U19A U122C, for which the self-cleavage worked out at 0.71.

As to U19C U43A, the self-cleavage worked out at 2.04.

Turning to A22U U57C, the self-cleavage was 0.84.

Turning to G20U A94U, the self-cleavage amounted to 2.23.

For the variant G20U, the self-cleavage amounted to 1.53.

G20A: the self-cleavage worked out at 1.55.

Consider G20C, for which the self-cleavage worked out at 1.88.

G21U U108C: the self-cleavage is 0.02.

As to A22U A95G, the self-cleavage was 0.94.

Regarding U19C U120C, the self-cleavage was determined as 0.77.

In the case of A22U A78U, the self-cleavage was found to be 0.33.

Regarding A22G U124G, the self-cleavage was found to be 0.96.

Turning to U19C C121A, the self-cleavage stood at 2.88.

Take A22U A116G: the self-cleavage came out at 0.96.

For the variant U19G A24G, the self-cleavage was 1.16.

Regarding A22U A51G, the self-cleavage was determined as 1.63.

On to A22U C25U, for which the self-cleavage turned out to be 0.77.

Take U19C A27G: the self-cleavage was found to be 0.89.

A22U A27U: the self-cleavage worked out at 2.02.

Regarding U19A A118G, the self-cleavage was determined as 0.88.

For the variant A22G U70C, the self-cleavage was 0.91.

In the case of A22G U108A, the self-cleavage turned out to be 0.01.

With A22G A67C, the self-cleavage amounted to 1.6.

For G21A U127C, the self-cleavage is 1.32.

Turning to U19C G74C, the self-cleavage was determined as 0.18.

In the case of A22G A86G, the self-cleavage is 1.31.

As for A22U, the self-cleavage came out at 1.3.

On to A22C, for which the self-cleavage is 1.11.

With A22G, the self-cleavage was determined as 1.09.

U19C U97A: the self-cleavage was determined as 1.34.

As for U19C U97C, the self-cleavage was 1.5.

Regarding G21C U108C, the self-cleavage stood at 0.02.

For U19A A116C, the self-cleavage amounted to 0.09.

For the variant U19A A116U, the self-cleavage is 0.43.

For A22U A94G, the self-cleavage stood at 1.84.

As to U19C A91U, the self-cleavage came to 1.37.

With U19G A23G, the self-cleavage was 0.83.

A22G G44A: the self-cleavage came to 1.2.

U19A U133C: the self-cleavage came to 1.73.

For U19A U127C, the self-cleavage came out at 0.92.

For the variant A22C U70C, the self-cleavage stood at 1.25.

Consider A22G C76U, for which the self-cleavage is 0.19.

For A22G A89C, the self-cleavage was determined as 1.28.

Turning to U19C A59U, the self-cleavage is 0.81.

Turning to U19C A59G, the self-cleavage came out at 1.55.

On to A22C A63U, for which the self-cleavage amounted to 1.85.

As to U19A G137U, the self-cleavage came to 1.52.

As for U19A G53A, the self-cleavage was 1.39.

On to U19C A114G, for which the self-cleavage is 0.39.

On to U19C A114U, for which the self-cleavage turned out to be 0.11.

In the case of U19C G75C, the self-cleavage amounted to 0.17.

With U19C G75A, the self-cleavage stood at 0.23.

For A22G A59C, the self-cleavage stood at 1.17.

Turning to A22G A59U, the self-cleavage came to 1.11.

For the variant A22U A135G, the self-cleavage worked out at 0.4.

With A22U U87C, the self-cleavage came to 0.88.

Turning to A22U U87A, the self-cleavage worked out at 1.53.

As for G20A A118G, the self-cleavage stood at 0.79.

Take U19A A111U: the self-cleavage stood at 0.09.

For the variant A22G A110C, the self-cleavage was found to be 0.3.

In the case of A22G A110G, the self-cleavage is 0.08.

As for A22G A110U, the self-cleavage is 0.8.

A22G U103G: the self-cleavage was 0.05.

As to A22G U103A, the self-cleavage was found to be 0.41.

As to U19C A62G, the self-cleavage worked out at 0.83.

In the case of U19C A62C, the self-cleavage came out at 1.65.

Consider U19A U26C, for which the self-cleavage amounted to 2.12.

Regarding U19C G31A, the self-cleavage came out at 0.83.

For U19C G31U, the self-cleavage was 1.29.

U19C A67G: the self-cleavage worked out at 1.04.

For U19C A67U, the self-cleavage turned out to be 1.67.

In the case of U19A U130C, the self-cleavage was 0.95.

Regarding G21U A22G, the self-cleavage stood at 1.71.

On to A22G A23G, for which the self-cleavage is 1.09.

In the case of A22G U102A, the self-cleavage worked out at 0.32.

With A22G U102G, the self-cleavage is 1.05.

As for A22G U102C, the self-cleavage was determined as 1.56.

Consider U19A U124C, for which the self-cleavage came to 0.9.

Take A22C A89C: the self-cleavage was determined as 1.57.

Turning to A22G A54G, the self-cleavage amounted to 0.84.

A22G A54C: the self-cleavage worked out at 1.7.

For G21A A116G, the self-cleavage was found to be 0.46.

Turning to G21A A95G, the self-cleavage stood at 2.07.

Consider U19G G115A, for which the self-cleavage was 0.38.

Regarding A22G A134U, the self-cleavage came out at 1.05.

Turning to A22G A90G, the self-cleavage was determined as 1.12.

For the variant U19C A64G, the self-cleavage came to 1.09.

In the case of U19C A64U, the self-cleavage came out at 1.45.

In the case of G20A A56G, the self-cleavage turned out to be 1.66.

For U19C, the self-cleavage was 1.17.

As to U19G, the self-cleavage is 1.18.

For A22G U49G, the self-cleavage was 1.39.

Take A22G U49C: the self-cleavage amounted to 0.55.

Regarding G21A A90G, the self-cleavage is 0.38.

Consider U19C U133C, for which the self-cleavage was determined as 2.01.

For A22U U100C, the self-cleavage worked out at 2.44.

Consider A22U A63U, for which the self-cleavage was found to be 2.2.

On to A22U A63G, for which the self-cleavage stood at 1.45.

U19C A94G: the self-cleavage was found to be 1.53.

Consider A22G G58A, for which the self-cleavage stood at 0.55.

For U19C A66G, the self-cleavage was found to be 1.62.

U19C A66U: the self-cleavage is 0.38.

For A22G G48A, the self-cleavage was found to be 1.56.

On to A22G A94C, for which the self-cleavage was 1.21.

Take A22G A94G: the self-cleavage is 0.92.

Take U19A G48A: the self-cleavage is 1.35.

Turning to A22G A111G, the self-cleavage was found to be 0.05.

Consider A22G A111U, for which the self-cleavage was determined as 0.04.

As for G20U U39A, the self-cleavage was determined as 1.57.

With A22U A54G, the self-cleavage came out at 1.46.

With A22G A82U, the self-cleavage was 0.36.

As to A22G U97G, the self-cleavage amounted to 1.42.

For A22G A60G, the self-cleavage is 0.94.

Turning to U19C A30G, the self-cleavage was 0.94.

For the variant G20U U37C, the self-cleavage turned out to be 1.37.

U19C C76U: the self-cleavage was found to be 0.14.

Consider A22G G136A, for which the self-cleavage is 0.6.

With U19A U100C, the self-cleavage stood at 1.68.

For A22G A96G, the self-cleavage was 1.28.

Turning to A22G A96C, the self-cleavage came to 1.58.

In the case of A22G U132G, the self-cleavage came to 1.75.

On to G20U U122A, for which the self-cleavage was 2.45.

Consider A22G A118U, for which the self-cleavage turned out to be 1.05.

On to A22U A117G, for which the self-cleavage turned out to be 1.06.

With A22G U57C, the self-cleavage worked out at 0.91.

Consider U19C A90G, for which the self-cleavage worked out at 1.39.
